Measured values reported in the supplement of paper PMC10567573.
± gives the standard deviation.

Test: protein stability index of a GFP-peptide fusion (GPS, HEK-293T) (PSI 1-6); higher = more stable
[1] = treatment: DMSO, c terminus: a fixed tail appended
[2] = treatment: MLN4924 1 uM, 8 h, c terminus: a fixed tail appended
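Also: 24-mer peptide tiles fused after GFP, lentivirally expressed, FACS-sorted into six equal bins by GFP/DsRed ratio, decoded by Illumina sequencing, PSI is the read-weighted mean bin number.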

Row | Sequence | protein stability index (treatment: DMSO, c terminus: native) | protein stability index (treatment: MLN4924 1 uM, 8 h, c terminus: native) | protein stability index [1] | protein stability index [2]
1 | PCYSRQFITSCPCWLEILLNNPR [SMAD6] | 2.92 ± 0.28 | 2.77 ± 0.42 |  | 
2 | PNGVQLSPAEDFVLVAETTMARIR [APMAP] |  |  | 3.21 ± 0.21 | 3.5 ± 0.22
3 | GRTHQWKPLYPDDYVHISSKPCDL [ADAMTSL2] |  |  | 3.25 ± 0.3 | 3.42 ± 0.093
4 | DKRRDLAHLAAEVEGKCLQSGFEM [TRIM39] |  |  | 3.97 ± 0.18 | 4.03 ± 0.36
5 | IEIGCEDKTLAFKMNGYISNANYS [MLH1] |  |  | 2.34 ± 0.3 | 
6 | LPQETNLTLKVCKPQAPQKLDPTL |  |  | 3.58 ± 0.36 | 3.91 ± 0.49
7 | NPNLSNRRGSTPLHMAVERRVRGV [RIPK4] |  |  | 3.84 ± 0.56 | 4.47 ± 0.65
8 | AEHEITELTATFTKFDRDGNRILD [PKD2L1] |  |  | 4.76 ± 0.24 | 4.95 ± 0.19
9 | HYGGVVSLIPLILDLMKEWIAHSE [SPACA9] |  |  | 3.02 ± 0.46 | 2.23 ± 0.46
10 | SVSLQINCQSVAQMNLLQKYSLLK [DLC1] |  |  | 2.2 ± 0.12 | 2.13 ± 0.22
11 | FLTTAIRPHGIFGPRDPQLVPILI [NSDHL] |  |  | 2.69 ± 0.53 | 2.42 ± 0.41
12 | RMDTPPPEERLEKQNEKLNNQEEE [CCDC89] |  |  | 5.55 ± 0.29 | 5.48 ± 0.28
13 | KRKSEVERAVKRMRHLSTGTMTGL [MATN2] |  |  | 3.31 ± 0.088 | 3.12 ± 0.65
14 | VSPIQIDGAGRTWQDSDTVKLLVD [TOR1AIP2] |  |  | 3.92 ± 0.11 | 3.75 ± 0.32
15 | RKPGMSSTARRSRAASSQRAEEED [CHMP4C] |  |  | 5.38 ± 0.17 | 5.41 ± 0.25
16 | GGGPGDGGGADTGTGGEEVEALQL [FBXO33] |  |  | 5.38 ± 0.16 | 5.32 ± 0.37
17 | RAACFDGHLEVVRYLVGEHQADLE [FEM1A] |  |  | 3.31 ± 0.27 | 3.39 ± 0.25
18 | LRFLYSDEVQIGPETVMTTLYTAK [BTBD1] |  |  | 2.48 ± 0.38 | 1.99 ± 0.24
19 | GPVGTDFKPLNSTPATTTEPPKPT [ZNF207] |  |  | 5.24 ± 0.21 | 5.19 ± 0.23
20 | ICIMDAENITTVSVIKDHHTRSIT [WDR88] |  |  | 2.34 ± 0.31 | 2.18 ± 0.24
21 | LICEGLYPASIVDEPTFKVLLKTA [ZBED1] |  |  | 2.25 ± 0.28 | 2.31 ± 0.24
22 | AVKLADFGLAIEVEGEQQAWFGFA [CAMK2A] |  |  | 2.51 ± 0.48 | 2.26 ± 0.5
23 | LWSDPMAQEGCKANTIRGGGCYFG [PPEF2] |  |  | 2.68 ± 0.73 | 2.5 ± 0.44

Row | Sequence | protein stability index (treatment: DMSO, c terminus: native) | protein stability index (treatment: MLN4924 1 uM, 8 h, c terminus: native) | protein stability index [1] | protein stability index [2]
24 | TTARERPCVRPGVSGSPVTQNHAA [FBF1] |  |  | 4.33 ± 0.23 | 4.51 ± 0.3
25 | IGRGTKVILHLKEDQTEYLEERRV [HSP90AB1] |  |  | 3.34 ± 0.16 | 3.57 ± 0.29
26 | REEQQLLASTSKPVVKLLHNRSNN [KCTD13] |  |  | 4.75 ± 0.23 | 4.89 ± 0.14
27 | FEFEVRVCDSCHEAITDEERAPTA [WDFY2] |  |  | 3.48 ± 0.33 | 3.57 ± 0.086
28 | INTLITSGADTAKCGIHSMFPLHL [ANKRD44] |  |  | 1.8 ± 0.21 | 2.64 ± 0.84
29 | RPATAADCSDILRLIKELAKYEYM [SAT1] |  |  | 2.06 ± 0.14 | 2.48 ± 0.18
30 | SLLNKKADGVKPQTNSTKNSAAAT [CAMK2B] |  |  | 4.43 ± 0.055 | 4.34 ± 0.23
31 | TSTPPPASVINNMLAEIFCQTGGV [ZBED1] |  |  | 2.84 ± 0.076 | 2.73 ± 0.23
32 | GGGGQGDGGSSLASGSTQRQPPPP [FBXO28] |  |  | 5.38 ± 0.19 | 5.27 ± 0.29
33 | LTCVICLNYLVDPVTICCGHSFCR [TRIM43] |  |  | 2.83 ± 0.82 | 2.91 ± 0.97
34 | MGTSHGITRPSPRRSNSPDKFKRP [CCDC6] |  |  | 4.71 ± 0.087 | 4.89 ± 0.11
35 | RRSTTDLRGTQFDYERGKGESTED [ZSWIM9] |  |  | 5.57 ± 0.17 | 5.53 ± 0.15
36 | LVLKVLWNDFLMCYSSRPLLCWSV [SLC19A2] |  |  | 3.19 ± 0.48 | 3.45 ± 0.53
37 | GEVIHCKLRAMKELSEAAEAQHGP [STX11] |  |  | 4.03 ± 0.38 | 4.22 ± 0.11
38 | QGHLRRLRSRYSVASFKFDAGEVS [MYORG] |  |  | 2.93 ± 0.26 | 3.27 ± 0.33
39 | HVMNPLETLSITNCRLSEGDVMHL [PRAME] |  |  | 2.54 ± 0.79 | 2.4 ± 0.24
40 | KNIIHKTSGKRYVYRFVCDLQNLL [ETS2] |  |  | 2.96 ± 0.48 | 2.69 ± 0.6
41 | RMEEIVEGCTGALHILARDVHNRI [CTNNB1] |  |  | 2.74 ± 0.19 | 2.89 ± 0.28
42 | RVDFEEFVELIGPKLREETAHMLG [CABP4] |  |  | 2.58 ± 0.25 | 2.73 ± 0.39
43 | IGLWGLAVKGSLGSDLGGPLPTDP [TSPAN10] |  |  | 2.32 ± 0.27 | 2.39 ± 0.29
44 | HLYQSSARRYAGPLHHQTQRFRLD [ELAVL3] |  |  | 2.99 ± 0.18 | 3.05 ± 0.32
45 | PKVEYVWRNIILMSLLHLGALYGI [SCD] |  |  | 3.26 ± 0.5 | 3.48 ± 0.06
46 | LVLVVNTLRRIQASMAPAAALPPV [SERTAD1] |  |  | 2.35 ± 0.099 | 2.33 ± 0.2

Row | Sequence | protein stability index (treatment: DMSO, c terminus: native) | protein stability index (treatment: MLN4924 1 uM, 8 h, c terminus: native) | protein stability index [1] | protein stability index [2]
47 | YGMQTQNYPKGGLLDSMCPASTPS [ETS2] |  |  | 3.79 ± 0.19 | 3.64 ± 0.18
48 | LIGGLEAQLSELRCEMEAQNQEYK [KRT15] |  |  | 4.1 ± 0.15 | 4.52 ± 0.44
49 | AAGELESMGFSARYNFTPDPDFKD [NETO1] |  |  | 4.71 ± 0.2 | 4.61 ± 0.18
50 | PGRGHTHAAQGGPLLCPGCQGQPQ [ELOA2] |  |  | 4.38 ± 0.26 | 4.47 ± 0.14
51 | LPIFTPAKMGATKEEREDTPIQLQ [TCAP] |  |  | 4.7 ± 0.089 | 4.72 ± 0.088
52 | EEHLSPLDFLHSANFSLGSINQRL [RNF180] |  |  | 3.17 ± 0.38 | 3.41 ± 0.24
53 | IHDSEFKEYTTRTQAPPSVILGVT [DENND6A] |  |  | 3.22 ± 0.17 | 3.29 ± 0.31
54 | VADMMYFCQMLAVVETINAAIGVT [HACD3] |  |  | 3.06 ± 0.42 | 3.2 ± 0.36
55 | QKYDPDKDEWHKVFDLPESLGGIR [KLHL13] |  |  | 3.55 ± 0.23 | 3.93 ± 0.29
56 | DTGVGKSSIVWRFVEDSFDPNINP [RAB22A] |  |  | 2.93 ± 0.28 | 3.08 ± 0.29
57 | RSEALAVDGAGKPGAEEAQDPEGK [CHGA] |  |  | 5.61 ± 0.15 | 5.561 ± 0.045
58 | SWEGLAVLDSLLLTLLPQLQEAWQ [RSAD1] |  |  | 3.27 ± 0.35 | 3.22 ± 0.52
59 | EESEPGTLVGNVAQDLGLKMTDLL [PCDHGC5] |  |  | 4.34 ± 0.081 | 4.29 ± 0.55
60 | GKTFKQSSNLGQHQRIHTGEKPFE [ZNF232] |  |  | 4.46 ± 0.41 | 4.48 ± 0.17
61 | PGSMSEVQELCKQLHAKIDAAEEE [TNNI2] |  |  | 5.38 ± 0.27 | 5.36 ± 0.11
62 | QRIALRLGNGNDKKEMNKSDLNTN [KMT2E] |  |  | 4.78 ± 0.12 | 4.47 ± 0.28
63 | KLDKKLKKMEQNKTAATRYRQKKR [ATF4] |  |  | 4.48 ± 0.16 | 4.42 ± 0.23
64 | AMVTADSKYCYGPQGSRSPYIPPH [FKBP8] |  |  | 3.27 ± 0.42 | 3.13 ± 0.26
65 | YRVSDVTKAGHSLELIEPLIKFQV [VDR] |  |  | 1.99 ± 0.4 | 2.12 ± 0.21
66 | SVGHNNLIPLANTGIVNHTHSRMG [CARM1] |  |  | 3.47 ± 0.32 | 3.66 ± 0.2
67 | RLIEVEDMMVMGRKPDPMCVFTYV [SMTNL2] |  |  | 2.38 ± 0.37 | 2.59 ± 0.41
68 | NYLAEHCPPLHIPGSMSEVQELCK [TNNI2] |  |  | 3.91 ± 0.19 | 3.78 ± 0.11
69 | RAKEEERLNKLRLESEGSPETLTN [HACD3] |  |  | 5.38 ± 0.23 | 5.28 ± 0.26

Row | Sequence | protein stability index (treatment: DMSO, c terminus: native) | protein stability index (treatment: MLN4924 1 uM, 8 h, c terminus: native) | protein stability index [1] | protein stability index [2]
70 | DKMEGNPICVQIPWDKNPEALAKW [CRY1] |  |  | 4.54 ± 0.094 | 4.33 ± 0.24
71 | KPGPQDTVERPFYDLWASDNPLDR [NOP53] |  |  | 4.45 ± 0.43 | 4.38 ± 0.16
72 | SEIPRGVRVALDYEAGQVTLHNAQ [TRIM15] |  |  | 4.45 ± 0.35 | 4.57 ± 0.11
73 | AETQPQNPPAQPAPNAWQVIKGVL [CLPTM1] |  |  | 3.55 ± 0.15 | 3.78 ± 0.25
74 | DYSHRQKEQDVEKELRDGGEQDTW [NFE2L1] |  |  | 5.63 ± 0.5 | 5.46 ± 0.44
75 | AFHGAPSHLPTRSPSFPEAPDSGR [TBX6] |  |  | 4.32 ± 0.26 | 4.37 ± 0.38
76 | KWLDMLNNWDKWMAKKHKKIRLRC [TBC1D10A] |  |  | 2.62 ± 0.72 | 2.27 ± 0.31
77 | MAAGQNGHEEWVGSAYLFVESSLD [TRADD] |  |  | 2.05 ± 0.26 | 2.65 ± 0.37
78 | VNDKRRKKSGEKEQHISKCKKAFR [KMT2E] |  |  | 3.76 ± 0.14 | 3.86 ± 0.27
79 | SQNIQEDDLQQLQLFTEYGRLAMD [ATL3] |  |  | 4.3 ± 0.27 | 4.09 ± 0.47
80 | VVAAVGKELIIFRLVAPTEGSLEW [WDR41] |  |  | 2.3 ± 0.21 | 2.37 ± 0.28
81 | GNLQLDCLAQGWKQYQQRAFGWFR [RTP4] |  |  | 2.3 ± 0.5 | 2.24 ± 0.23
82 | LAPNFRWAIPNRQINDGMGGDGDD [BEX3] |  |  | 4.77 ± 0.22 | 4.6 ± 0.26
83 | AKGLAESLELPKAIQDQLPRLQQL [FANCE] |  |  | 3.95 ± 0.12 | 4.15 ± 0.3
84 | RKKEAKRKISSLSFTLEEEEEGGE [FAM50A] |  |  | 5.33 ± 0.41 | 5.67 ± 0.41
85 | NACATKEQKNHTFPRLNRNKYMVT [PLD5] |  |  | 3.63 ± 0.3 | 3.77 ± 0.41
86 | DDVEVLTLKKFKGDLAYRRQEYQK [C8orf76] |  |  | 3.78 ± 0.18 | 3.92 ± 0.31
87 | GPHEAFNKLWELCCQWLKPKMRSK [ZNF449] |  |  | 2.67 ± 0.88 | 2.99 ± 0.71
88 | EPPQDSHSRKTVLIKTIETRNGEV [PRPH] |  |  | 4.67 ± 0.28 | 4.79 ± 0.4
89 | IQGYRVYYTMDPTQHVNNWMKHNV [PTPRD] |  |  | 2.55 ± 0.25 | 2.44 ± 0.47
